Results from paper PMC9106292 (Science Advances, 2022).

Key:
[1] = target: ASC-mCherry (full-length human ASC, TEV protease cleavage site, mCherry, C-terminal hexa-histidine tag) (human, UniProt Q9ULZ3 1-195); assay: negative-stain EM
cryo-EM structure = target: the molecule itself; assay: cryo-EM structure
negative-stain EM = target: the molecule itself; assay: negative-stain EM

Chain of ASC-mCherry (full-length human ASC, TEV protease cleavage site, mCherry, C-terminal hexa-histidine tag) (Q9ULZ3 whole entry): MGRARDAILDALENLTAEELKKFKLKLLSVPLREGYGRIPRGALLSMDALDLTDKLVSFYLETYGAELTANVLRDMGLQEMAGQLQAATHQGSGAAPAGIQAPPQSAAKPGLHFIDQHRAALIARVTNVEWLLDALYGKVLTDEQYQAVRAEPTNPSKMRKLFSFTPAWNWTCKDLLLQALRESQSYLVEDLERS

B1: human NLRP3^PYD (residues 3 to 110; C108S) (domain or fragment)
chain: MASTRCKLARYLEDLEDVDLKKFKMHLEDYPPQKGCIPLPRGQTEKADHVDLATLMIDFNGEEKAWAMAVWIFAAINRRDLYEKAKRDEPKWGSDNARVSNPTVISQE
binding result [1]: binds
binding result (cryo-EM structure): binds

B2: NLRP3^PYD (residues 3 to 110; C108S) CAPS mutant H51R (domain or fragment)
chain: MASTRCKLARYLEDLEDVDLKKFKMHLEDYPPQKGCIPLPRGQTEKADRVDLATLMIDFNGEEKAWAMAVWIFAAINRRDLYEKAKRDEPKWGSDNARVSNPTVISQE
binding result (negative-stain EM): binds

B3: NLRP3^PYD (residues 3 to 110; C108S) CAPS mutant A77V (domain or fragment)
chain: MASTRCKLARYLEDLEDVDLKKFKMHLEDYPPQKGCIPLPRGQTEKADHVDLATLMIDFNGEEKAWAMAVWIFAVINRRDLYEKAKRDEPKWGSDNARVSNPTVISQE
binding result (negative-stain EM): binds

B4: NLRP3^PYD (residues 3 to 110; C108S) CAPS mutant D21H (domain or fragment)
chain: MASTRCKLARYLEDLEDVHLKKFKMHLEDYPPQKGCIPLPRGQTEKADHVDLATLMIDFNGEEKAWAMAVWIFAAINRRDLYEKAKRDEPKWGSDNARVSNPTVISQE
binding result (negative-stain EM): binds
